In experiment [1] the target is T1, Recombinant truncated human his-tag B7-H3 protein (amino acids 1-461 of SEQ ID NO:1 with a carboxy terminal … (human, UniProt Q5ZPR3 29-461)).
T1 construct: also called his-tagged B7-H3 protein; recombinant human his-tagged B7-H3 protein
T1 sequence: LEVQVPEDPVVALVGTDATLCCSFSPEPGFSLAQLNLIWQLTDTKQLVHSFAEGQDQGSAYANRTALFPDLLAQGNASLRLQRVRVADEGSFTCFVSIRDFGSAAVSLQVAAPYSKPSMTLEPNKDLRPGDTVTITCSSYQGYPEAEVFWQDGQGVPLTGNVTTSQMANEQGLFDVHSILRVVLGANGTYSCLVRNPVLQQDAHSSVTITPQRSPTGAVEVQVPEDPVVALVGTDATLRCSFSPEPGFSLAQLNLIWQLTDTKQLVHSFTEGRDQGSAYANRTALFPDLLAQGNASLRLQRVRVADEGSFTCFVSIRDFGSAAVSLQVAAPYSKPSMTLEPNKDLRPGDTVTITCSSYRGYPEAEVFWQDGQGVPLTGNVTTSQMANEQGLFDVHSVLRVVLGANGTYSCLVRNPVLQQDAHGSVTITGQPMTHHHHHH
As to the kind of experiment: SPR (BIAcore 3000), antibody captured by anti-human Fc, his-tagged B7-H3 as analyte from 100 nM, 1:1 model. For orientation: SPR reads the build-up and loss of mass on a sensor chip optically.

The target in experiment [2] is T2, rat B7-H3 antigen protein (Sino Biologicals; Cat. No. 80380-R02H-20) (rat, UniProt Q7TPB4 29-248).
T2 construct: Bought protein
T2 sequence (looked up): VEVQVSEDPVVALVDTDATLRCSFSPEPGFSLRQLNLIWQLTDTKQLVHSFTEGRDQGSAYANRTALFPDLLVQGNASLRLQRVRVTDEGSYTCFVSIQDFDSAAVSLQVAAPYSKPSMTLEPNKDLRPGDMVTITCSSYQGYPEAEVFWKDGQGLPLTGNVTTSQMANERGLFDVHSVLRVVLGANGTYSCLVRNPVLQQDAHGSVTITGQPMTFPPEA
Put plainly: ELISA, antigen coated at 50 ng/well. (ELISA stands for enzyme-linked immunosorbent assay.)

The next experiment addresses T3, human B7-H6 (human, UniProt Q68D85 25-262).
T3 construct: Bought protein; also called NCR3LG1
T3 sequence (looked up): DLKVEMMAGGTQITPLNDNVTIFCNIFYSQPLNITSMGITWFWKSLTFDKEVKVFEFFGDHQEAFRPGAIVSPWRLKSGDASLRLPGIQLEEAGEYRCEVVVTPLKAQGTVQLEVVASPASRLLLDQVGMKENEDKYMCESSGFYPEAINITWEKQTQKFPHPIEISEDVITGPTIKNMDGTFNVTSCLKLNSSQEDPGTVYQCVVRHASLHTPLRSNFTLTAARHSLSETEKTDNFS
Put plainly: ELISA, antigen coated at 50 ng/well, antibody serially diluted.

In a further experiment the target is T4, human B7-H7 (human, UniProt Q9UM44 23-344).
T4 construct: Bought protein; also called HHLA2
T4 sequence (looked up): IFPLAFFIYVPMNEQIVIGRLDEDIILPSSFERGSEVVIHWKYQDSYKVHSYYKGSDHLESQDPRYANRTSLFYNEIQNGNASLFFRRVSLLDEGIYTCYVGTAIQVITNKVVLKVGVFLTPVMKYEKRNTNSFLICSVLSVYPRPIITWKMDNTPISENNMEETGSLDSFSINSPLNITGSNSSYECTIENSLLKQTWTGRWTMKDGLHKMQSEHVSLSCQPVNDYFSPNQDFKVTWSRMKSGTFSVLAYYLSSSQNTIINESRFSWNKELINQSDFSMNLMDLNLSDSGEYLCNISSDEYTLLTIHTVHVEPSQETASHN
The experiment is described as above.

In the next experiment the target is T5, human B7.1 (human, UniProt P33681 35-242).
T5 construct: Bought protein; also called CD80
T5 sequence (looked up): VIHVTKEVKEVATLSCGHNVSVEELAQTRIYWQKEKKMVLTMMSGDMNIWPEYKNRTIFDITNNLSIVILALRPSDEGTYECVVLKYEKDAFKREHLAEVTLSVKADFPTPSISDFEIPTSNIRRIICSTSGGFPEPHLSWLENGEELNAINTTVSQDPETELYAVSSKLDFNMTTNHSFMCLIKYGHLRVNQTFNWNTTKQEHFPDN
Described as above.

The target in a further experiment is T6, human B7.2 (human, UniProt P42081 24-247, limits assumed).
T6 construct: Bought protein; also called CD86
T6 sequence (looked up): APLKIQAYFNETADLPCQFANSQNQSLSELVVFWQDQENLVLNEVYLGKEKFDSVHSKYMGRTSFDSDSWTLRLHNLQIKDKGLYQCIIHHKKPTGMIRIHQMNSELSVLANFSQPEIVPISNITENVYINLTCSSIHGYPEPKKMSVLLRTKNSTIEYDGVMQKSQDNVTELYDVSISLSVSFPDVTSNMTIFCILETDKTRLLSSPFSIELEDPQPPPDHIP
Described as above.

In the next experiment the target is T7, human B7-H1 (human, UniProt Q9NZQ7 19-239).
T7 construct: Bought protein; also called PD-L1; CD274
The description is as above.

For the next experiment, the target named is T8, human B7-H2 (human, UniProt O75144 19-258, limits assumed).
T8 construct: Bought protein; also called ICOSL
T8 sequence (looked up): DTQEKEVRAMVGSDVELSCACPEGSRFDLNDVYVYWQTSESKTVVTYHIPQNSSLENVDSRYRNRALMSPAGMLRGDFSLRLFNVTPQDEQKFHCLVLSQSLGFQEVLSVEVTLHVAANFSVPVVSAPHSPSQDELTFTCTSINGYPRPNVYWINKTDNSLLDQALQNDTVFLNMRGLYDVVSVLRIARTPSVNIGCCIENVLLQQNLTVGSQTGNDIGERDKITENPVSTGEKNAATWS
Described as above.

The target of another experiment is T9, human B7-H4 (human, UniProt Q7Z7D3 25-258, limits assumed).
T9 construct: Bought protein; also called B7S1; B7x
T9 sequence (looked up): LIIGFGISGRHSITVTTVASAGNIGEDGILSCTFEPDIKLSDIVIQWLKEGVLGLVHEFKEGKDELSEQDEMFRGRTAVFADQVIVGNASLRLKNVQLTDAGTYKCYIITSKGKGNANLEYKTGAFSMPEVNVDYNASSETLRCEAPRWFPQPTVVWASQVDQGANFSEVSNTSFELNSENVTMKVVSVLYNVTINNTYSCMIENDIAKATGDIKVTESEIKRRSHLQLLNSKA
The description is as above.

Another experiment addresses T10, human B7-H5 (human, UniProt Q9H7M9 33-194).
T10 construct: Bought protein; also called VISTA; GI24
The description is as above.

T7 sequence (Q9NZQ7 19-239 limits assumed): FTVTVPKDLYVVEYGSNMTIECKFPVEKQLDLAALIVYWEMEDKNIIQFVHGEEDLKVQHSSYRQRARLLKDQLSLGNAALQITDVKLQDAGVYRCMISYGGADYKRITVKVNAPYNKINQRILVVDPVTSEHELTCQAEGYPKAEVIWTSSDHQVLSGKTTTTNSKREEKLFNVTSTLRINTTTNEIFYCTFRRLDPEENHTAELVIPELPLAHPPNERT

B1: B3-2E3 (antibody, V domains shown)
VH: QVQLVESGGGVVQPGRSLRLSCVASEFTFSSYTIHWVRQAPGKGLEWVAVISHDGSNKYYADSVKGRFTISRDNSKNTLYLQMSSLRAEDTAVYYCAGDRYVYNYYGMDVWGQGTTVTVSS
VL: DIVMTQSPSSLSAYVGDRVTITCRASQDIRTYLAWYQQKPGTAPKLLISGASILRSGVPSRFSGSGSGRDFTLSITSLQPEDFATYYCQQLYSYPPWTFGQGTKVEIK
notes: It was captured by anti-human Fc
For the molecule B1, the binding result in experiment [1] is recorded as “binds”.

B2: B3-4F7 (antibody, V domains shown)
VH: QVQLVQSGAEVKKPGASVKVSCKASGYTFTSYGISWVRQAPGQGLEWMGWISAYNGNTNYAQKLQGRVTMTTDTSTSTAYMELRSLRSDDTAVYYCARDGYYGSGSHPWGQGTLVTVSS
VL: QSVVTQPPSVSGAPGQRVTISCTGNSSNIGAGYDVHWYQQLPGTAPKLLIYGNSNRPSGIPDRFSGSKSGTSATLGITGLQTGDEADYYCGTWDSSLSAGVFGTGTKVTVL
notes: as for B1
As to B2, in experiment [1], the binding result is recorded as “binds”.

B3: B3-D1 (antibody, V domains shown)
VH: EVQLVQSGAELKKPGASVKVSCKASGHTFTSYYIHWVRQAPGQGLEWMGIINPSGDSTSYAQKFQGRVTMTRDTSTSTVYMELSSLTSEDTAVYYCARAIDYGGPYWYLDLWGRGTLVTVSS
VL: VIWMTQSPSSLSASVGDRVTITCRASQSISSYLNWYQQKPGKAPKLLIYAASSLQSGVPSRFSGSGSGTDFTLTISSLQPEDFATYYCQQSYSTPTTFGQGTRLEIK
notes: as for B1
With B3, the binding result in experiment [1] is “binds”.

B4: anti-B7-H3 antibody (VA clone) (antibody, V domains shown)
VH: QVQLVQSGAEVKKPGASVKVSCKASGYTFTDSYMHWVRQAPGQGLEWMGWISPRTGGTDYAQKFQGRVTMTRDTSISTAYMELSRLRSDDTAVYYCARGSSRGNDYWGQGTLVTVSS
VL: QSVLTQPASVSGSPGQSITISCTGTGSDVGGYNYVSWYQQHPGKAPKLIIYDVTKRPSGFSNRFSGSKSGNTASLTISGLQAEDEADYYCSSYTSRRTYVFGTGTKLTVL
notes: It was tested as a fully human IgG ('IgG protein', captured by anti-human Fc); also called B7-H3-VA; B7-H3 VA
B4: the binding result in [2] is on record as “binds”; with human B7-H6 it was “no binding”; with human B7-H7 it was “no binding”; in the experiment with human B7.1, “no binding”; with human B7.2, “no binding”; with human B7-H1 it was “no binding”. Also, the binding result in the experiment with human B7-H2, with human B7-H4 and with human B7-H5 was “no binding” in each case.

B5: anti-B7-H3 antibody (VA LALA clone) (antibody, V domains shown)
VH: QVQLVQSGAEVKKPGASVKVSCKASGYTFTDSYMHWVRQAPGQGLEWMGWISPRTGGTDYAQKFQGRVTMTRDTSISTAYMELSRLRSDDTAVYYCARGSSRGNDYWGQGTLVTVSS
VL: QSVLTQPASVSGSPGQSITISCTGTGSDVGGYNYVSWYQQHPGKAPKLIIYDVTKRPSGFSNRFSGSKSGNTASLTISGLQAEDEADYYCSSYTSRRTYVFGTGTKLTVL
notes: also called B7-H3-VA LALA; B7-H3-VA-LALA
On to B5, for which the binding result with human B7-H6, in the experiment with human B7-H7, in the experiment with human B7.1, with human B7.2, with human B7-H1 and in the experiment with human B7-H2 was “no binding” each time. Moreover, the binding result in the experiment with human B7-H4 and with human B7-H5 was “no binding” in each case.

B6: B3-2H1 (antibody, V domains shown)
VH: QVQLQQSGAEVEKPGASVEVSCRASGYTFTSYYIHWVRQAPGQGLEWVGMITPLSGGTTYAQKFQGRVTMTRDTSTSTVYMNLSSLRSEDTAVYFCARGGRAVASSFEFWGQGTLVTVSS
VL: QSVLTQPRSVSGSPGQSVTISCTGTSSDVGGYNYVSWYQQHPGKAPKLMIYDVSKRPSGVPDRFSGSKSGNTASLTISGLQAEDEADYYCCSYAGSYTEVFGTGTKVTVL
notes: as for B1
In the case of B6, the binding result in experiment [1] is recorded as “binds”.

B7: B3-A6 (antibody, V domains shown)
VH: QVQLQQSGPGLVKPSQTLSLTCAISGDSVSSNSAAWNWIRQSPSRGLEWLGRTYYRSKWYNDYAVSVKSRITINPDTSKNQFSLQLNSVTPEDTAVYYCAREGIAVAALWDWGQGTLVTVSS
VL: QAVLTQPPSASGTPGQRVTISCSGSSSNIGSNYVSWYQQLPGTAPKLLMYSNNHRPSGVPDRFSGSKSGTSASLAISGLRTEDEADYYCAAWDDSLSGQVFGGGTKLTVL
notes: It was captured by anti-human Fc, so it was tested as an antibody with a human Fc
Regarding B7, the binding result in [1] is on record as “binds”.

These data come from patent publication EP4473018A2 (dated 2024).
